Experimental data from IntAct's records for PubMed 22653727.

Experiments:
clock_mouse Clock [1] = biological target: clock_mouse Clock (UniProt O08785)
clock_mouse Clock [2] = biological target: clock_mouse Clock (UniProt O08785); remark: listed apart in the source
clock_mouse Clock [3] = biological target: clock_mouse Clock (UniProt O08785); remark: listed apart in the source

Chain of clock_mouse Clock (O08785 whole entry): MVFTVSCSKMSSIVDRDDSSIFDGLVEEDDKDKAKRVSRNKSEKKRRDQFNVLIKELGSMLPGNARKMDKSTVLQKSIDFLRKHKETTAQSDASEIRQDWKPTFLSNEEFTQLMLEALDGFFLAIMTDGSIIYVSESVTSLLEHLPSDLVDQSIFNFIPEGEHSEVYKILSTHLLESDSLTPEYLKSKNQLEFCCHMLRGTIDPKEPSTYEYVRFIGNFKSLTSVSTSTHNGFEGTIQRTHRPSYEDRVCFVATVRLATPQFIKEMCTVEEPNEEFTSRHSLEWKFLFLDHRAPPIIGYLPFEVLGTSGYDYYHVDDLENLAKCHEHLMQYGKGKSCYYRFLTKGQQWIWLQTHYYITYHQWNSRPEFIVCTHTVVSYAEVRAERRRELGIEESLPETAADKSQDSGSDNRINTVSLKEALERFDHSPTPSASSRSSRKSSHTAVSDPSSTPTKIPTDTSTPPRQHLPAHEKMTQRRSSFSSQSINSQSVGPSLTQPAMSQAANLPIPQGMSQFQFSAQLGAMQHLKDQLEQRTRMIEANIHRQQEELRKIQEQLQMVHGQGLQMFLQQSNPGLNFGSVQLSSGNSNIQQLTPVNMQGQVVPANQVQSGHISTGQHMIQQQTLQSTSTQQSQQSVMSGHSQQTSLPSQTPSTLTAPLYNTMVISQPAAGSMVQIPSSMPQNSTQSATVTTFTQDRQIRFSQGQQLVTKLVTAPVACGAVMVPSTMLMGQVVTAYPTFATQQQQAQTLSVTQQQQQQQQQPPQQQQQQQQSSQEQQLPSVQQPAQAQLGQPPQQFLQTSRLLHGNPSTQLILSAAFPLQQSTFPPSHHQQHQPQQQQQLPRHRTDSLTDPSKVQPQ
Chain of Basic helix-loop-helix ARNT-like protein 1 (Mus musculus), Q9WTL8-4 I317D (Q9WTL8 other isoform, or with tags, fused parts or gaps I317D): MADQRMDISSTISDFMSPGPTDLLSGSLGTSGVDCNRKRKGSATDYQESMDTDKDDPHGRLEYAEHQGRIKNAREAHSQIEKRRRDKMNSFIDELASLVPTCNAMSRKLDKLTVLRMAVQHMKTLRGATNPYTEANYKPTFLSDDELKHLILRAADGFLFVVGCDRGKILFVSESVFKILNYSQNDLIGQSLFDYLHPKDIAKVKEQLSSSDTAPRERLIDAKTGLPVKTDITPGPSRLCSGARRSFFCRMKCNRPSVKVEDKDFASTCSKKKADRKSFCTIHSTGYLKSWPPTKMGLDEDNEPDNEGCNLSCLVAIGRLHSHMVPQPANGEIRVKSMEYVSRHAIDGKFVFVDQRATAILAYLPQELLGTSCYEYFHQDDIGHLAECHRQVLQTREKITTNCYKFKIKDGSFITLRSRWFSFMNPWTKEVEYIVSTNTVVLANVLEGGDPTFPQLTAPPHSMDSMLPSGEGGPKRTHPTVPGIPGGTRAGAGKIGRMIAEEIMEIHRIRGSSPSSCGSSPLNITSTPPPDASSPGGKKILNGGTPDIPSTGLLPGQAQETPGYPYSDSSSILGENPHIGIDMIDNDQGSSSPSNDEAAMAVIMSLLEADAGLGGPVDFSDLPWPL
Chain of Basic helix-loop-helix ARNT-like protein 1 (Mus musculus), Q9WTL8-4 F423R (Q9WTL8 other isoform, or with tags, fused parts or gaps F423R): as the sequence (Q9WTL8 other isoform, or with tags, fused parts or gaps I317D) above
Chain of Basic helix-loop-helix ARNT-like protein 1 (Mus musculus), Q9WTL8-4 L150E (Q9WTL8 other isoform, or with tags, fused parts or gaps L150E): as the sequence (Q9WTL8 other isoform, or with tags, fused parts or gaps I317D) above
Chain of Basic helix-loop-helix ARNT-like protein 1 (Mus musculus), Q9WTL8-4 W427A (Q9WTL8 other isoform, or with tags, fused parts or gaps W427A): as the sequence (Q9WTL8 other isoform, or with tags, fused parts or gaps I317D) above
Chain of Basic helix-loop-helix ARNT-like protein 1 (Mus musculus), Q9WTL8-4 V435R (Q9WTL8 other isoform, or with tags, fused parts or gaps V435R): as the sequence (Q9WTL8 other isoform, or with tags, fused parts or gaps I317D) above
Chain of Basic helix-loop-helix ARNT-like protein 1 (Mus musculus), Q9WTL8-4 L95E (Q9WTL8 other isoform, or with tags, fused parts or gaps L95E): as the sequence (Q9WTL8 other isoform, or with tags, fused parts or gaps I317D) above
Chain of Basic helix-loop-helix ARNT-like protein 1 (Mus musculus), Q9WTL8-4 F423R;V435R (Q9WTL8 other isoform, or with tags, fused parts or gaps F423R;V435R): as the sequence (Q9WTL8 other isoform, or with tags, fused parts or gaps I317D) above
Chain of Basic helix-loop-helix ARNT-like protein 1 (Mus musculus), Q9WTL8-4 L95E;L150E;W427A (Q9WTL8 other isoform, or with tags, fused parts or gaps L95E;L150E;W427A): as the sequence (Q9WTL8 other isoform, or with tags, fused parts or gaps I317D) above
Chain of Basic helix-loop-helix ARNT-like protein 1 (Mus musculus), Q9WTL8-4 L115E (Q9WTL8 other isoform, or with tags, fused parts or gaps L115E): as the sequence (Q9WTL8 other isoform, or with tags, fused parts or gaps I317D) above

## Basic helix-loop-helix ARNT-like protein 1 (Mus musculus), Q9WTL8-4 V435R
clock_mouse Clock [1]
  effect of a mutation on the interaction: with no effect
clock_mouse Clock [2]
  effect of a mutation on the interaction: disrupting interaction strength

## Basic helix-loop-helix ARNT-like protein 1 (Mus musculus), Q9WTL8-4 W427A
clock_mouse Clock [1]
  effect of a mutation on the interaction: decreasing interaction strength
clock_mouse Clock [2]
  effect of a mutation on the interaction: with no effect

## Basic helix-loop-helix ARNT-like protein 1 (Mus musculus), Q9WTL8-4 I317D
clock_mouse Clock [1]
  effect of a mutation on the interaction: disrupting interaction strength
clock_mouse Clock [2]
  effect of a mutation on the interaction: decreasing interaction strength

## Basic helix-loop-helix ARNT-like protein 1 (Mus musculus), Q9WTL8-4 L95E
clock_mouse Clock [1]
  effect of a mutation on the interaction: disrupting interaction strength
clock_mouse Clock [2]
  effect of a mutation on the interaction: with no effect

## Basic helix-loop-helix ARNT-like protein 1 (Mus musculus), Q9WTL8-4 F423R;V435R
clock_mouse Clock [1]
  effect of a mutation on the interaction: decreasing interaction strength
clock_mouse Clock [2]
  effect of a mutation on the interaction: disrupting interaction strength

## Basic helix-loop-helix ARNT-like protein 1 (Mus musculus), Q9WTL8-4 L150E
clock_mouse Clock [3]
  effect of a mutation on the interaction: decreasing interaction strength
clock_mouse Clock [1]
  effect of a mutation on the interaction: with no effect

## Basic helix-loop-helix ARNT-like protein 1 (Mus musculus), Q9WTL8-4 F423R
clock_mouse Clock [1]
  effect of a mutation on the interaction: with no effect
clock_mouse Clock [2]
  effect of a mutation on the interaction: decreasing interaction strength

## Basic helix-loop-helix ARNT-like protein 1 (Mus musculus), Q9WTL8-4 L95E;L150E;W427A
clock_mouse Clock [1]
  effect of a mutation on the interaction: disrupting interaction strength
clock_mouse Clock [2]
  effect of a mutation on the interaction: disrupting interaction strength

## Basic helix-loop-helix ARNT-like protein 1 (Mus musculus), Q9WTL8-4 L115E
clock_mouse Clock [1]
  effect of a mutation on the interaction: disrupting interaction strength
